Measured values from patent US20030138522A1.

Biological target: wheat extractable xylanolytic enzymes
Test: cell-based or functional assay

purified wheat endogenous xylanase inhibitor
OD (Xylazyme substrate, xylanase activity; 100 µl xylanolytic extract + 100 µl purified inhibitor; control without inhibitor OD 0.8): 0.277 OD | OD (Xylazyme substrate, xylanase activity; 250 µl xylanolytic extract + 100 µl purified inhibitor; control without inhibitor OD 0.867): 0.275 OD | OD (Xylazyme substrate, xylanase activity; 500 µl xylanolytic extract + 100 µl purified inhibitor; control without inhibitor OD 1.031): 0.414 OD
